Test [1] concerns the target T1, PSMP蛋白 (human, UniProt Q1L6U9 36-139, limits assumed).
T1 sequence (looked up): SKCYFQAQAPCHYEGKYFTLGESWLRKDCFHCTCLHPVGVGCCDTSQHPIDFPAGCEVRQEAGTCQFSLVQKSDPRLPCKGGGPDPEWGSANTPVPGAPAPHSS
In words: cytometric bead array, rabbit polyclonal on beads, 3D5 at 5 μg/ml as detection antibody.

For a further test, the target named is T2, PC3细胞内源性PSMP蛋白 (human, UniProt Q1L6U9 36-139, limits assumed).
T2 construct: Detected by Western blot and by immunocytochemistry in PC3 cells
T2 sequence (looked up): T1 sequence (looked up)
In words: Western blot of PC3 cells. For orientation: A western blot detects proteins with antibodies after separation by electrophoresis.

The next test addresses T3, PSMP真核蛋白 (human, UniProt Q1L6U9 36-139).
T3 construct: mature; Eukaryotically expressed secreted PSMP; The expression construct and any tags are not described; also called 重组PSMP真核蛋白; PSMP分泌蛋白
T3 sequence (looked up): T1 sequence (looked up)
In words: ELISA.

The target in test [2] is T1, PSMP蛋白. The test is described as follows: ELISA with 293T expression supernatant. A general note: An ELISA detects its analyte on a solid surface through an enzyme-linked reagent.

B1: 抗PSMP的单克隆抗体3D5 (antibody, V domains shown)
VH: EVQLQQSGPELVKPGASVKISCKASGYSFTGYFMNWVMQSHGKSLEWIGRINPYNGDTFYNQKFKGKATLTVDKSSSTAHMELRSLASEDSAVYYCARGGDGYYAFAYWGQGTLVTVSA
VL: NIVMTQSPKSMSMSVGERVTLSCRASENVGTYVSWYQQKPEQSPKLLIYGASNRYTGVPDRFTGSGSATDFTLTISSVQAEDLADYHCGQSYSYMYTFGGGTKLEIKR
notes: Mouse hybridoma antibody, heavy chain IgG1, light chain kappa, purified from ascites on Protein G Sepharose; also called 鼠单抗3D5; 3D5中和抗体
In the case of B1, the binding result in the test with PSMP蛋白 [1], with PC3细胞内源性PSMP蛋白 and with PSMP真核蛋白 was “binds” each time.

B2: 共转染含有3D5重链和轻链基因的质粒的293T上清中表达的抗体 (antibody, V domains shown)
VH: B1 VH
VL: B1 VL
notes: It was tested as culture supernatant
For B2, in the test with PSMP蛋白 [2], the binding result is on record as “binds”.

Source of the values: patent publication CN106749661A (UNIV BEIJING, dated 2017).
